In article PMC10757926, “Two birds with one stone: human SIRPα nanobodies for functional modulation and in vivo imaging of myeloid cells” (Frontiers in Immunology, 2023):
Numbering of substitutions follows the chain as printed. Numbers in names are those of the source. Values belong to the binder of their own block, whether it stands above or below them.

How the values were obtained:
recombinant hSIRPα = target: T1, recombinant hSIRPα (human, UniProt P78324); assay: HDX-MS; hSIRPα with Nb S8, S33 or S36; methods not in the text shown; details: both partners purified
T1 construct: signal-regulatory protein α (SIRPα), human, recombinant extracellular portion; source: bought: Acrobiosystems

[1] = target: T2, full-length hSIRPα on U2OS cells (Homo sapiens, UniProt P78324); assay: immunostaining of cells or tissue; live-cell immunofluorescence on U2OS cells expressing the target; unlabeled Nbs (1 nM to 100 nM) with Cy5-labeled anti-VHH, 1 h at 37°C; details: one partner purified
T2 construct: signal-regulatory protein α (SIRPα), human, full-length, co-expressed with IRES-derived GFP; also called U2OS-hSIRPα; source: U2OS, stably expressing, on live cells

[2] = target: T3, hSIRPα domain 2 displayed on U2OS cells (Homo sapiens, UniProt P78324); assay: as above; details: one partner purified
T3 construct: signal-regulatory protein α (SIRPα), human, domain 2; also called hSIRPαD2; D2; source: U2OS, transiently expressing, on live cells

[3] = target: T4, hSIRPα domain 3 displayed on U2OS cells (Homo sapiens, UniProt P78324); assay: as above; details: one partner purified
T4 construct: signal-regulatory protein α (SIRPα), human, domain 3; also called hSIRPαD3; D3; source: U2OS, transiently expressing, on live cells

[4] = target: T5, hSIRPα-V1 displayed on U2OS cells (Homo sapiens, allele V1, UniProt P78324); assay: as above; details: one partner purified
T5 construct: signal-regulatory protein α (SIRPα), human, allelic variant V1; also called hSIRPα variant V1; source: U2OS, transiently expressing, on live cells

[5] = target: T6, hSIRPβ1 displayed on U2OS cells (Homo sapiens, UniProt O00241); assay: as above; details: one partner purified
T6 construct: signal-regulatory protein β1 (SIRPβ1), human; source: U2OS, transiently expressing, on live cells

[6] = target: T7, hSIRPγ displayed on U2OS cells (Homo sapiens, UniProt Q9P1W8); assay: as above; details: one partner purified
T7 construct: signal-regulatory protein γ (SIRPγ), human; also called hSIRPy; source: U2OS, transiently expressing, on live cells

[7] = target: T8, murine SIRPα displayed on U2OS cells (Mus musculus, UniProt P97797); assay: as above; details: one partner purified
T8 construct: signal-regulatory protein α (SIRPα), mouse; also called mouse SIRPα; source: U2OS, transiently expressing, on live cells

[8] = target: T9, biotinylated recombinant hSIRPα (extracellular portion) (Homo sapiens, UniProt P78324, biotin (Sulfo-NHS-LC-LC-Biotin)); assay: BLI; Octet RED96e; biotinylated hSIRPα (5 µg/mL) immobilised on streptavidin biosensors; Nbs 0.625 nM to 320 nM in Octet buffer (PBS, 0.1% BSA, 0.02% Tween-20); association 240 s, dissociation 720 s; 1:1 model, global fit; details: both partners purified
T9 construct: signal-regulatory protein α (SIRPα), human, recombinant extracellular portion; also called biotinylated hSIRPα; signal-regulatory protein α; source: bought: Acrobiosystems

[9] = target: T10, hSIRPα on HT1080 hSIRPα knock-in cells (Homo sapiens, UniProt P78324); assay: radioligand binding; antigen excess binding assay: 1 ng (2 MBq/µg) of ^64Cu-hSIRPα-S36K>R Nb on an increasing number of HT1080-hSIRPα cells, 1 h at 37°C; cell-bound radioactivity counted; details: one partner purified
T10 construct: signal-regulatory protein α (SIRPα), human; source: HT1080 hSIRPα knock-in (KI) cells, on cells
T10 sequence (P78324 31-504): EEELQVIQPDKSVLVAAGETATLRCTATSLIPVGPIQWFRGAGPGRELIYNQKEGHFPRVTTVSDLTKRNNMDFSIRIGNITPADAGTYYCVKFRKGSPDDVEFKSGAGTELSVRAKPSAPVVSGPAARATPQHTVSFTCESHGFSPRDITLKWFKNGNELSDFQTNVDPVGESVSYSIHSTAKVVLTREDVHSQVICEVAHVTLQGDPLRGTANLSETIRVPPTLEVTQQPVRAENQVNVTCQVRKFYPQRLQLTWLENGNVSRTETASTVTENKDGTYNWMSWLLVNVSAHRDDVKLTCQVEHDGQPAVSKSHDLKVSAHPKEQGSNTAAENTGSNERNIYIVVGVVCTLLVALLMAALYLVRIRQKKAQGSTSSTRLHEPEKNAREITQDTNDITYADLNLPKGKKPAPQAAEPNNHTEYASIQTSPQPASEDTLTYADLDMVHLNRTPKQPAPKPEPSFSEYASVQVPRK

T5 sequence (P78324 31-504): as above
T2 sequence (P78324 31-504): as above
T8 sequence (P97797 32-513): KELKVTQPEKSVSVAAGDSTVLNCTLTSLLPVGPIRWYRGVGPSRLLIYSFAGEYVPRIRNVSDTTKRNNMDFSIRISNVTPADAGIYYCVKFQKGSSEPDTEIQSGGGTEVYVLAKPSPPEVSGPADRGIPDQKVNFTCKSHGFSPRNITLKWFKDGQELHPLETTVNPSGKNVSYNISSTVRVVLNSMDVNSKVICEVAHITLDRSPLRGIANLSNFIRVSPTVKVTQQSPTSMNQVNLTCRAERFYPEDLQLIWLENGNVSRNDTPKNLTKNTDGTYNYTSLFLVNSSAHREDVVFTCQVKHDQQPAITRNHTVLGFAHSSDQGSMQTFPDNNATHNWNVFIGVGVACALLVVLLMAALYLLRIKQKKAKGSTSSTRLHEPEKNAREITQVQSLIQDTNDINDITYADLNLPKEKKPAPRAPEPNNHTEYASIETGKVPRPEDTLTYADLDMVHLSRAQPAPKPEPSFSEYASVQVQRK
T6 sequence (O00241 30-398): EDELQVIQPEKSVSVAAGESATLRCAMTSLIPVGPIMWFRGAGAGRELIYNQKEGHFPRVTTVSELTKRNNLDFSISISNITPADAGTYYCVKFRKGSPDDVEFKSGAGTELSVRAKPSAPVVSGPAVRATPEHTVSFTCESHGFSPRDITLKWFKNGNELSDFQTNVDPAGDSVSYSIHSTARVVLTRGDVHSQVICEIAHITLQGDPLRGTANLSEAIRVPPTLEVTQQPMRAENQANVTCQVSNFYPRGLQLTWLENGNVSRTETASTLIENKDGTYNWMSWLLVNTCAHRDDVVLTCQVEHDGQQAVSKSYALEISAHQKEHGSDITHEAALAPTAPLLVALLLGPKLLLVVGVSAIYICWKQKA
T1 sequence (P78324 31-373): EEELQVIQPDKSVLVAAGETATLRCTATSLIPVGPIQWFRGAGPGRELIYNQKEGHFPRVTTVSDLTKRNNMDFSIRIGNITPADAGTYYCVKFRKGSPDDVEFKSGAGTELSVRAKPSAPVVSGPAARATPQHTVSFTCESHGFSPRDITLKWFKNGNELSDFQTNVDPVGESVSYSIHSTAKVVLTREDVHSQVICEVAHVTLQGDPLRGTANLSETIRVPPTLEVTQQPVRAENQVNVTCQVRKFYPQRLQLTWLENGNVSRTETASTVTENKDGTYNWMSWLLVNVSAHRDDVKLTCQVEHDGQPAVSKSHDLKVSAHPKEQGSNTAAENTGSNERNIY
T9 sequence (P78324 31-373): as above
T7 sequence (Q9P1W8 29-387): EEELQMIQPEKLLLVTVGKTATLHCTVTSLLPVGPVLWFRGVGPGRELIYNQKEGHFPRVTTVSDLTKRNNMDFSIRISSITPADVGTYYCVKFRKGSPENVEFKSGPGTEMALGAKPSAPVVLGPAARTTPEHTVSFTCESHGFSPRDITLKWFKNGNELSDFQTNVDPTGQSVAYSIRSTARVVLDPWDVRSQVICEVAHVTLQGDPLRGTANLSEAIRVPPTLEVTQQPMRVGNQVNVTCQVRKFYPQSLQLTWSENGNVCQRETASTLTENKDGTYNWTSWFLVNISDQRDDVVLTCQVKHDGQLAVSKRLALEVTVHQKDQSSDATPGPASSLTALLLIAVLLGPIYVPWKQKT
T3 sequence (P78324 whole entry, looked up, tested part not stated): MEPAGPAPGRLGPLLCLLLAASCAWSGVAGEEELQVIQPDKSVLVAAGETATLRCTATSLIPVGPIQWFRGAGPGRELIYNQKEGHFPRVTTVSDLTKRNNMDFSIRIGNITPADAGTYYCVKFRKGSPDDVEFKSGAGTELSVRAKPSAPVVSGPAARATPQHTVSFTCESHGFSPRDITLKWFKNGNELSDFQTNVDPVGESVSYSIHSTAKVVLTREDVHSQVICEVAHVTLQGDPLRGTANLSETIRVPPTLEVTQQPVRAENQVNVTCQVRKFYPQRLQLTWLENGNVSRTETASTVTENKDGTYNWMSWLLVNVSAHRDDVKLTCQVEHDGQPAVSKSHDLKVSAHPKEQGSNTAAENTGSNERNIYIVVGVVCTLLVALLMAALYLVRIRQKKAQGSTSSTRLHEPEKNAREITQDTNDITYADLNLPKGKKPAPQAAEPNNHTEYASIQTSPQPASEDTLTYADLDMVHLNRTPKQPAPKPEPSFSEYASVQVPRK
T4 sequence (P78324 whole entry, looked up, tested part not stated): as above

binding result (recombinant hSIRPα): binds
binding result [1]: binds
binding result [2]: binds
binding result [3]: no binding (tested: Nbs 1 nM to 100 nM)
binding result [4]: binds
binding result [5]: binds
binding result [6]: binds
binding result [7]: no binding (tested: Nbs 1 nM to 100 nM)
binding result [8]: binds
B1: hSIRPα-S36 Nb (VHH)
VHH: EVQLVESGGGLVQPGGSLRLSCAASGFTLDYYAIGWFRQVPGKEREGVSCISSDGGGNTYYADSVKGRFTISRDNAKNTVYLQMNSLKPEDSAVYSCAAGPTYYSGSYCRDPHSDYDYWGQGTQVTVSS
notes: selected against the entire extracellular portion of hSIRPα; also called Nb S36; original S36 Nb; source: E. coli XL-1, purified (IMAC, SEC); not shown: His tag (from the IMAC purification)

binding result [9]: binds
B2: ^64Cu-hSIRPα-S36K>R Nb (VHH)
VHH: B1 VHH with K43R, K66R, K77R, K88R
notes: as the VHH of m15 (S36 with all four lysine residues replaced by arginine); also called ^64Cu-labeled hSIRPα-S36K>R Nb; source: E. coli, purified; chelator conjugated and radiolabeled with ^64Cu
